One substance from paper PMC9844198 can be followed below.

The assay has as its target LD-CLIMP-63-FLAG (soluble CLIMP-63 luminal domain, C-terminal His6-FLAG tag) (human). The assay can be described thus: native MS; intact protein mass LC-MS under native-like conditions; MAbPac SEC-1 column, 50 mM ammonium acetate pH 7.5, QExactive HF Orbitrap, high-mass-range mode.

On to “LD-CLIMP-63-FLAG (soluble CLIMP-63 luminal domain, C-terminal His6-FLAG tag) (domain or fragment)”, for which the stoichiometry N is 3.
